B1: deoxyhypusine synthase, wild type, His-tagged (enzyme)
chain: MEGSLEREAPAGALAAVLKHSSTLPPESTQVRGYDFNRGVNYRALLEAFGTTGFQATNFGRAVQQVNAMIEKKLEPLSQDEDQHADLTQSRRPLTSCTIFLGYTSNLISSGIRETIRYLVQHNMVDVLVTTAGGVEEDLIKCLAPTYLGEFSLRGKELRENGINRIGNLLVPNENYCKFEDWLMPILDQMVMEQNTEGVKWTPSKMIARLGKEINNPESVYYWAQKNHIPVFSPALTDGSLGDMIFFHSYKNPGLVLDIVEDLRLINTQAIFAKCTGMIILGGGVVKHHIANANLMRNGADYAVYINTAQEFDGSDSGARPDEAVSWGKIRVDAQPVKVYADASLVFPLLVAETFAQKMDAFMHEKNED
B2: eukaryotic translation factor 5A-1 (eIF5A-1), residues 15-151 (domain or fragment)
chain: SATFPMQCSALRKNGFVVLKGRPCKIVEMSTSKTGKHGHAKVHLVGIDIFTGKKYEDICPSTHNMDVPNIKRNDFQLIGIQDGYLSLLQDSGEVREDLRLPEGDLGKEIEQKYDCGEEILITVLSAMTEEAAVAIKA

Tests used:
[1] = molecular target: B2; test: MST; + NAD
[2] = molecular target: B2; test: MST; + NAD + SPD
[3] = molecular target: T1, deoxyhypusine synthase delY305_I306, patient-derived variant, His-tagged (human, UniProt P49366 1-369, delY305_I306); test: MST; + NAD
[4] = molecular target: deoxyhypusine synthase N173S, patient-derived variant, His-tagged (human, UniProt P49366 1-369, N173S); test: MST; + NAD + SPD
[5] = molecular target: T1, deoxyhypusine synthase delY305_I306, …; test: MST; + NAD + SPD

Kd [1] [nM]	Kd [2] [nM]	Kd [3] [nM]	Kd [4] [nM]	Kd [5] [nM]	Binder
27	81.7	–	–	–	B1
–	–	368	426	1580	B2

From publication PMC10042821 (2023)
